The target in series [1] is OXPHOS complex III dimer (human (endogenous in fibroblasts, 143B and HepG2)) (UniProt P00156). Briefly: native gel or EMSA; BN-PAGE and Western blot of isolated mitochondria (fibroblasts, 143B cells) solubilised in 1% (v/v) Triton X-100; anti-UQCRC1 antibody. Background: A gel shift assay detects complexes by their altered migration in electrophoresis.
Series [2] has the same target. Briefly: native gel or EMSA; mtDNA-encoded proteins radiolabeled with [35S]-methionine/cysteine in 143B cells in the presence of cycloheximide, 2 h pulse, chase 0, 3 or 24 h; mitochondria isolated, BN-PAGE or 2D native-PAGE.
Series [3] concerns the molecule itself. Briefly: native gel or EMSA; BN-PAGE and Western blot of isolated mitochondria (fibroblasts, 143B cells) solubilised in 1% (w/v) digitonin; anti-MCAD or anti-NDUFA9 antibody.
Series [4] deals with the molecule itself. Put plainly: native gel or EMSA; 35S-labelled in vitro translated protein incubated at 37 °C with freshly isolated 143B mitochondria (5 to 60 min), mitochondria solubilised in 1% (v/v) TX-100 or 1% (w/v) digitonin, BN-PAGE.

What is called stoichiometry N is a count of units in the complex or per binding partner. In the case of “OXPHOS complex III dimer (from UniProt P00156 1-380; P31930 35-480; P22695 15-453)”, the stoichiometry N in series [1] and in series [2] was 2 in each case.

B1: Medium-chain acyl-Coenzyme A dehydrogenase (enzyme, human (endogenous in 143B and HepG2), UniProt P11310 26-421, looked up)
chain: KANRQREPGLGFSFEFTEQQKEFQATARKFAREEIIPVAAEYDKTGEYPVPLIRRAWELGLMNTHIPENCGGLGLGTFDACLISEELAYGCTGVQTAIEGNSLGQMPIIIAGNDQQKKKYLGRMTEEPLMCAYCVTEPGAGSDVAGIKTKAEKKGDEYIINGQKMWITNGGKANWYFLLARSDPDPKAPANKAFTGFIVEADTPGIQIGRKELNMGQRCSDTRGIVFEDVKVPKENVLIGDGAGFKVAMGAFDKTRPVVAAGAVGLAQRALDEATKYALERKTFGKLLVEHQAISFMLAEMAMKVELARMSYQRAAWEVDSGRRNTYYASIAKAFAGDIANQLATDAVQILGGNGFNTEYPVEKLMRDAKIYQIYEGTSQIQRLIVAREHIDKYKN
notes: Medium-chain acyl-CoA dehydrogenase (MCAD, EC 1.3.8.7); 421 amino acid precursor, processed in the mitochondrial matrix into a mature 396 amino acid (43.6 kDa) protein; also called MCAD; Medium-chain acyl-CoA dehydrogenase; source: endogenous, mitochondria isolated from 143B cells or HepG2 cells, solubilised in detergent
B1: the “stoichiometry N” value in series [3] was 4.

B2: Medium-chain acyl-Coenzyme A dehydrogenase (enzyme, UniProt P11310 26-421, looked up)
chain: B1 chain
modifications: [35S]-methionine/cysteine
notes: MCAD cDNA translated as the precursor; after import a proteinase K resistant mature form is seen; 421 amino acid precursor, mature 396 amino acids; Imported into mitochondria that hold endogenous MCAD, so the labelled ~175 kDa tetramer may be mixed with endogenous chains; also called MCAD; radiolabeled MCAD; source: in vitro translated (pGEM4Z, TnT Coupled Reticulocyte Lysate System), imported …
For B2, the “stoichiometry N” value in series [4] came to 4.

The record behind these values is PMC5760697, “Loss of the Mitochondrial Fatty Acid β-Oxidation Protein Medium-Chain Acyl-Coenzyme A Dehydrogenase Disrupts Oxidative Phosphorylation Protein Complex Stability and Function” (Scientific Reports, 2018).
